Experimental data reported in the supplement of paper PMC10567573.

B1: ZNF263 (parent)
chain: CSECGESFSRSSRLMSHQRTHTG

Variants of: B1
Assay: protein stability index of a GFP-peptide fusion (GPS, HEK-293T) (PSI 1-6); higher = more stable
Conditions: c terminus: native
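Note: lentivirally expressed fusions sorted by FACS into six bins by GFP to DsRed ratio, PSI derived from sequencing read proportions per bin multiplied by bin number.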

| Variant | protein stability index |
| --- | --- |
| CSECCESFSRSSRLMSHQRTHTG [G5C] | 2.33 |
| CSECYESFSRSSRLMSHQRTHTG [G5Y] | 2.33 |
| CSECTESFSRSSRLMSHQRTHTG [G5T] | 2.3 |
| CSECFESFSRSSRLMSHQRTHTG [G5F] | 3.91 |
| CSECNESFSRSSRLMSHQRTHTG [G5N] | 2.2 |
| CSECHESFSRSSRLMSHQRTHTG [G5H] | 1.64 |
| CSECEESFSRSSRLMSHQRTHTG [G5E] | 1.41 |
| CSECIESFSRSSRLMSHQRTHTG [G5I] | 2.23 |
| CSECKESFSRSSRLMSHQRTHTG [G5K] | 1.29 |
| CSECWESFSRSSRLMSHQRTHTG [G5W] | 1.88 |
| CSECRESFSRSSRLMSHQRTHTG [G5R] | 1.4 |
| CSECPESFSRSSRLMSHQRTHTG [G5P] | 1.89 |
| CSECDESFSRSSRLMSHQRTHTG [G5D] | 1.79 |
| CSECVESFSRSSRLMSHQRTHTG [G5V] | 1.03 |
| CSECSESFSRSSRLMSHQRTHTG [G5S] | 1.69 |
| CSECAESFSRSSRLMSHQRTHTG [G5A] | 2.77 |
| CSECQESFSRSSRLMSHQRTHTG [G5Q] | 2.03 |
| CSECLESFSRSSRLMSHQRTHTG [G5L] | 1.92 |
| CSCCGESFSRSSRLMSHQRTHTG [E3C] | 1.8 |
| CSHCGESFSRSSRLMSHQRTHTG [E3H] | 2.56 |
| CSTCGESFSRSSRLMSHQRTHTG [E3T] | 3.74 |
| CSMCGESFSRSSRLMSHQRTHTG [E3M] | 2.26 |
| CSLCGESFSRSSRLMSHQRTHTG [E3L] | 2.9 |
| CSDCGESFSRSSRLMSHQRTHTG [E3D] | 2.67 |
| CSKCGESFSRSSRLMSHQRTHTG [E3K] | 2.68 |

| Variant | protein stability index |
| --- | --- |
| CSRCGESFSRSSRLMSHQRTHTG [E3R] | 2.12 |
| CSPCGESFSRSSRLMSHQRTHTG [E3P] | 1.33 |
| CSNCGESFSRSSRLMSHQRTHTG [E3N] | 2.58 |
| CSWCGESFSRSSRLMSHQRTHTG [E3W] | 3.35 |
| CSVCGESFSRSSRLMSHQRTHTG [E3V] | 4.21 |
| CSGCGESFSRSSRLMSHQRTHTG [E3G] | 1.71 |
| CSQCGESFSRSSRLMSHQRTHTG [E3Q] | 3.33 |
| CSACGESFSRSSRLMSHQRTHTG [E3A] | 2.37 |
| CSFCGESFSRSSRLMSHQRTHTG [E3F] | 3.31 |
| CSICGESFSRSSRLMSHQRTHTG [E3I] | 4.09 |
| CSSCGESFSRSSRLMSHQRTHTG [E3S] | 1.87 |
| CSYCGESFSRSSRLMSHQRTHTG [E3Y] | 3.54 |
| CSECGESFERSSRLMSHQRTHTG [S9E] | 3.67 |
| CSECGESFKRSSRLMSHQRTHTG [S9K] | 2.23 |
| CSECGESFTRSSRLMSHQRTHTG [S9T] | 2.98 |
| CSECGESFDRSSRLMSHQRTHTG [S9D] | 4.09 |
| CSECGESFFRSSRLMSHQRTHTG [S9F] | 2.58 |
| CSECGESFGRSSRLMSHQRTHTG [S9G] | 2.23 |
| CSECGESFIRSSRLMSHQRTHTG [S9I] | 2.4 |
| CSECGESFNRSSRLMSHQRTHTG [S9N] | 2.67 |
| CSECGESFHRSSRLMSHQRTHTG [S9H] | 2.99 |
| CSECGESFRRSSRLMSHQRTHTG [S9R] | 2.37 |
| CSECGESFYRSSRLMSHQRTHTG [S9Y] | 3.1 |
| CSECGESFVRSSRLMSHQRTHTG [S9V] | 2.42 |
| CSECGESFPRSSRLMSHQRTHTG [S9P] | 1.74 |

| Variant | protein stability index |
| --- | --- |
| CSECGESFCRSSRLMSHQRTHTG [S9C] | 2.35 |
| CSECGESFMRSSRLMSHQRTHTG [S9M] | 2.68 |
| CSECGESFWRSSRLMSHQRTHTG [S9W] | 2.84 |
| CSECGESFARSSRLMSHQRTHTG [S9A] | 2.54 |
| CSECGESFQRSSRLMSHQRTHTG [S9Q] | 1.94 |
| CSECGESFLRSSRLMSHQRTHTG [S9L] | 2.03 |
| CMECGESFSRSSRLMSHQRTHTG [S2M] | 3.38 |
| CNECGESFSRSSRLMSHQRTHTG [S2N] | 2.62 |
| CFECGESFSRSSRLMSHQRTHTG [S2F] | 1.91 |
| CIECGESFSRSSRLMSHQRTHTG [S2I] | 2.77 |
| CEECGESFSRSSRLMSHQRTHTG [S2E] | 3.24 |
| CGECGESFSRSSRLMSHQRTHTG [S2G] | 2.86 |
| CPECGESFSRSSRLMSHQRTHTG [S2P] | 4.06 |
| CYECGESFSRSSRLMSHQRTHTG [S2Y] | 2.22 |
| CTECGESFSRSSRLMSHQRTHTG [S2T] | 2.54 |
| CDECGESFSRSSRLMSHQRTHTG [S2D] | 2.99 |
| CKECGESFSRSSRLMSHQRTHTG [S2K] | 2.51 |
| CQECGESFSRSSRLMSHQRTHTG [S2Q] | 2.84 |
| CAECGESFSRSSRLMSHQRTHTG [S2A] | 2.4 |
| CVECGESFSRSSRLMSHQRTHTG [S2V] | 3.85 |
| CRECGESFSRSSRLMSHQRTHTG [S2R] | 2.92 |
| CCECGESFSRSSRLMSHQRTHTG [S2C] | 1.79 |
| CHECGESFSRSSRLMSHQRTHTG [S2H] | 2.35 |
| CLECGESFSRSSRLMSHQRTHTG [S2L] | 2.67 |
| CWECGESFSRSSRLMSHQRTHTG [S2W] | 2.21 |

| Variant | protein stability index |
| --- | --- |
| CSECGEDFSRSSRLMSHQRTHTG [S7D] | 1.84 |
| CSECGEYFSRSSRLMSHQRTHTG [S7Y] | 3.8 |
| CSECGEPFSRSSRLMSHQRTHTG [S7P] | 2.63 |
| CSECGEMFSRSSRLMSHQRTHTG [S7M] | 3.59 |
| CSECGECFSRSSRLMSHQRTHTG [S7C] | 2.67 |
| CSECGEVFSRSSRLMSHQRTHTG [S7V] | 4.13 |
| CSECGELFSRSSRLMSHQRTHTG [S7L] | 3.6 |
| CSECGEQFSRSSRLMSHQRTHTG [S7Q] | 3.41 |
| CSECGEGFSRSSRLMSHQRTHTG [S7G] | 2.35 |
| CSECGEEFSRSSRLMSHQRTHTG [S7E] | 3.51 |
| CSECGEIFSRSSRLMSHQRTHTG [S7I] | 3.88 |
| CSECGEWFSRSSRLMSHQRTHTG [S7W] | 3.75 |
| CSECGEHFSRSSRLMSHQRTHTG [S7H] | 2.58 |
| CSECGENFSRSSRLMSHQRTHTG [S7N] | 2.64 |
| CSECGETFSRSSRLMSHQRTHTG [S7T] | 3.69 |
| CSECGERFSRSSRLMSHQRTHTG [S7R] | 2.33 |
| CSECGEAFSRSSRLMSHQRTHTG [S7A] | 2.94 |
| CSECGEKFSRSSRLMSHQRTHTG [S7K] | 2.72 |
| CSECGESDSRSSRLMSHQRTHTG [F8D] | 2.63 |
| CSECGESLSRSSRLMSHQRTHTG [F8L] | 1.37 |
| CSECGESMSRSSRLMSHQRTHTG [F8M] | 2.21 |
| CSECGESISRSSRLMSHQRTHTG [F8I] | 1.21 |
